System: Escherichia coli TOP10
Assay: shrunken log2 fold change of peptide-encoding DNA abundance (4.5 h post-induction vs induction); higher = less antimicrobial activity (less host growth inhibition)
Details: time post-induction: 4.5 h; library: site-saturation at positions 5, 18, 19, 20
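Also: peptides expressed intracellularly from a pBAD plasmid library in pooled LB shake-flask culture, induced with 0.3% L-arabinose, DNA abundance read by NGS, three biological replicates, DESeq2 with apeglm shrinkage.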

RRIRGRPPRLPRPRPRPGQHPRP
shrunken log2 fold change: 0.0185

RRIRGRPPRLPRPRPRPGRNPRP
shrunken log2 fold change: 0.307

RRIRGRPPRLPRPRPRPGSMPRP
shrunken log2 fold change: 0.305

RRIRGRPPRLPRPRPRPGTFPRP
shrunken log2 fold change: 0.222

RRIRGRPPRLPRPRPRPGTHPRP
shrunken log2 fold change: 0.508

RRIRGRPPRLPRPRPRPGWAPRP
shrunken log2 fold change: 0.992

RRIRGRPPRLPRPRPRPGWFPRP
shrunken log2 fold change: 0.27

RRIRGRPPRLPRPRPRPGWSPRP
shrunken log2 fold change: 0.758

RRIRGRPPRLPRPRPRPGYAPRP
shrunken log2 fold change: 0.222

RRIRGRPPRLPRPRPRPHCCPRP
shrunken log2 fold change: 0.0841

RRIRGRPPRLPRPRPRPHDYPRP
shrunken log2 fold change: 0.0282

RRIRGRPPRLPRPRPRPHENPRP
shrunken log2 fold change: 0.446

RRIRGRPPRLPRPRPRPHEPPRP
shrunken log2 fold change: 1.15

RRIRGRPPRLPRPRPRPHEQPRP
shrunken log2 fold change: 0.0117

RRIRGRPPRLPRPRPRPHFPPRP
shrunken log2 fold change: 0.0246

RRIRGRPPRLPRPRPRPHGIPRP
shrunken log2 fold change: 0.00234

RRIRGRPPRLPRPRPRPHHDPRP
shrunken log2 fold change: -0.102

RRIRGRPPRLPRPRPRPHHSPRP
shrunken log2 fold change: -0.196

RRIRGRPPRLPRPRPRPHKYPRP
shrunken log2 fold change: -0.216

RRIRGRPPRLPRPRPRPHLHPRP
shrunken log2 fold change: 0.227

RRIRGRPPRLPRPRPRPHLLPRP
shrunken log2 fold change: 0.306

RRIRGRPPRLPRPRPRPHMCPRP
shrunken log2 fold change: -0.01

RRIRGRPPRLPRPRPRPHNCPRP
shrunken log2 fold change: -0.0265

RRIRGRPPRLPRPRPRPHNNPRP
shrunken log2 fold change: -0.215

RRIRGRPPRLPRPRPRPHPCPRP
shrunken log2 fold change: 0.922

RRIRGRPPRLPRPRPRPHPEPRP
shrunken log2 fold change: 0.513

RRIRGRPPRLPRPRPRPHPLPRP
shrunken log2 fold change: 0.101

RRIRGRPPRLPRPRPRPHQSPRP
shrunken log2 fold change: 0.12

RRIRGRPPRLPRPRPRPHQWPRP
shrunken log2 fold change: 0.134

RRIRGRPPRLPRPRPRPHRVPRP
shrunken log2 fold change: 0.0916

RRIRGRPPRLPRPRPRPHSTPRP
shrunken log2 fold change: 0.517

RRIRGRPPRLPRPRPRPHVMPRP
shrunken log2 fold change: 0.0731

RRIRGRPPRLPRPRPRPHVNPRP
shrunken log2 fold change: 0.295

RRIRGRPPRLPRPRPRPHWMPRP
shrunken log2 fold change: 0.0496

RRIRGRPPRLPRPRPRPHWNPRP
shrunken log2 fold change: -0.017

RRIRGRPPRLPRPRPRPHWSPRP
shrunken log2 fold change: -0.132

RRIRGRPPRLPRPRPRPHYCPRP
shrunken log2 fold change: 0.167

RRIRGRPPRLPRPRPRPHYHPRP
shrunken log2 fold change: -0.421

RRIRGRPPRLPRPRPRPICCPRP
shrunken log2 fold change: 0.8

RRIRGRPPRLPRPRPRPIFQPRP
shrunken log2 fold change: 0.407

RRIRGRPPRLPRPRPRPIFVPRP
shrunken log2 fold change: 0.42

RRIRGRPPRLPRPRPRPIHEPRP
shrunken log2 fold change: -0.135

RRIRGRPPRLPRPRPRPIHKPRP
shrunken log2 fold change: -0.16

RRIRGRPPRLPRPRPRPIHPPRP
shrunken log2 fold change: 0.0319

RRIRGRPPRLPRPRPRPIHTPRP
shrunken log2 fold change: 0.0205

RRIRGRPPRLPRPRPRPIKIPRP
shrunken log2 fold change: 0.302

RRIRGRPPRLPRPRPRPIKVPRP
shrunken log2 fold change: 0.356

RRIRGRPPRLPRPRPRPILCPRP
shrunken log2 fold change: 0.174

RRIRGRPPRLPRPRPRPIMCPRP
shrunken log2 fold change: 0.0901

RRIRGRPPRLPRPRPRPIMIPRP
shrunken log2 fold change: 0.0216

RRIRGRPPRLPRPRPRPINMPRP
shrunken log2 fold change: -0.0846

RRIRGRPPRLPRPRPRPIPIPRP
shrunken log2 fold change: 0.0541

RRIRGRPPRLPRPRPRPIQQPRP
shrunken log2 fold change: 0.0149

RRIRGRPPRLPRPRPRPIRLPRP
shrunken log2 fold change: -0.0112

RRIRGRPPRLPRPRPRPISHPRP
shrunken log2 fold change: -0.0449

RRIRGRPPRLPRPRPRPISYPRP
shrunken log2 fold change: -0.0956

RRIRGRPPRLPRPRPRPITWPRP
shrunken log2 fold change: -0.0883

RRIRGRPPRLPRPRPRPIVRPRP
shrunken log2 fold change: 0.211

RRIRGRPPRLPRPRPRPIWAPRP
shrunken log2 fold change: 0.267

RRIRGRPPRLPRPRPRPIWLPRP
shrunken log2 fold change: 0.159

RRIRGRPPRLPRPRPRPKAEPRP
shrunken log2 fold change: 1.35

RRIRGRPPRLPRPRPRPKAFPRP
shrunken log2 fold change: 0.157

RRIRGRPPRLPRPRPRPKAMPRP
shrunken log2 fold change: 0.147

RRIRGRPPRLPRPRPRPKANPRP
shrunken log2 fold change: 0.836

RRIRGRPPRLPRPRPRPKDTPRP
shrunken log2 fold change: 0.61

RRIRGRPPRLPRPRPRPKEYPRP
shrunken log2 fold change: -0.102

RRIRGRPPRLPRPRPRPKFSPRP
shrunken log2 fold change: 0.392

RRIRGRPPRLPRPRPRPKIGPRP
shrunken log2 fold change: 0.752

RRIRGRPPRLPRPRPRPKKMPRP
shrunken log2 fold change: 0.572

RRIRGRPPRLPRPRPRPKKTPRP
shrunken log2 fold change: 0.181

RRIRGRPPRLPRPRPRPKLMPRP
shrunken log2 fold change: 1

RRIRGRPPRLPRPRPRPKNCPRP
shrunken log2 fold change: -0.111

RRIRGRPPRLPRPRPRPKNYPRP
shrunken log2 fold change: 0.175

RRIRGRPPRLPRPRPRPKPGPRP
shrunken log2 fold change: 1.07

RRIRGRPPRLPRPRPRPKQWPRP
shrunken log2 fold change: 0.28

RRIRGRPPRLPRPRPRPKSAPRP
shrunken log2 fold change: 0.781

RRIRGRPPRLPRPRPRPKVFPRP
shrunken log2 fold change: -0.00639

RRIRGRPPRLPRPRPRPKVLPRP
shrunken log2 fold change: 0.177

RRIRGRPPRLPRPRPRPKYVPRP
shrunken log2 fold change: 0.0402

RRIRGRPPRLPRPRPRPLAFPRP
shrunken log2 fold change: 0.487

RRIRGRPPRLPRPRPRPLCCPRP
shrunken log2 fold change: 0.829

RRIRGRPPRLPRPRPRPLCGPRP
shrunken log2 fold change: 0.78

RRIRGRPPRLPRPRPRPLCLPRP
shrunken log2 fold change: 0.437

RRIRGRPPRLPRPRPRPLCNPRP
shrunken log2 fold change: 0.388

RRIRGRPPRLPRPRPRPLDPPRP
shrunken log2 fold change: 0.9

RRIRGRPPRLPRPRPRPLDSPRP
shrunken log2 fold change: 0.217

RRIRGRPPRLPRPRPRPLECPRP
shrunken log2 fold change: 0.447

RRIRGRPPRLPRPRPRPLEIPRP
shrunken log2 fold change: 0.428

RRIRGRPPRLPRPRPRPLEVPRP
shrunken log2 fold change: 0.252

RRIRGRPPRLPRPRPRPLFAPRP
shrunken log2 fold change: 1.36

RRIRGRPPRLPRPRPRPLFVPRP
shrunken log2 fold change: 0.203

RRIRGRPPRLPRPRPRPLGFPRP
shrunken log2 fold change: 0.755

RRIRGRPPRLPRPRPRPLGLPRP
shrunken log2 fold change: 0.841

RRIRGRPPRLPRPRPRPLGRPRP
shrunken log2 fold change: 0.599

RRIRGRPPRLPRPRPRPLHFPRP
shrunken log2 fold change: 0.339

RRIRGRPPRLPRPRPRPLIEPRP
shrunken log2 fold change: 0.801

RRIRGRPPRLPRPRPRPLKCPRP
shrunken log2 fold change: 0.303

RRIRGRPPRLPRPRPRPLKSPRP
shrunken log2 fold change: 0.426

RRIRGRPPRLPRPRPRPLLLPRP
shrunken log2 fold change: 0.607

RRIRGRPPRLPRPRPRPLLPPRP
shrunken log2 fold change: 0.895

RRIRGRPPRLPRPRPRPLNNPRP
shrunken log2 fold change: -0.109

RRIRGRPPRLPRPRPRPLNTPRP
shrunken log2 fold change: 0.0396

RRIRGRPPRLPRPRPRPLNWPRP
shrunken log2 fold change: 0.0909

RRIRGRPPRLPRPRPRPLRIPRP
shrunken log2 fold change: 0.175

RRIRGRPPRLPRPRPRPLSYPRP
shrunken log2 fold change: 0.00315

RRIRGRPPRLPRPRPRPLTIPRP
shrunken log2 fold change: -0.155

RRIRGRPPRLPRPRPRPLTVPRP
shrunken log2 fold change: 0.48

RRIRGRPPRLPRPRPRPLTWPRP
shrunken log2 fold change: 0.462

RRIRGRPPRLPRPRPRPLVIPRP
shrunken log2 fold change: 0.187

RRIRGRPPRLPRPRPRPLVYPRP
shrunken log2 fold change: 0.0199

RRIRGRPPRLPRPRPRPLWMPRP
shrunken log2 fold change: 0.343

RRIRGRPPRLPRPRPRPLWTPRP
shrunken log2 fold change: 0.472

RRIRGRPPRLPRPRPRPLYMPRP
shrunken log2 fold change: 0.185

RRIRGRPPRLPRPRPRPLYQPRP
shrunken log2 fold change: 0.0508

RRIRGRPPRLPRPRPRPMDEPRP
shrunken log2 fold change: 0.237

RRIRGRPPRLPRPRPRPMDMPRP
shrunken log2 fold change: -0.02

RRIRGRPPRLPRPRPRPMEDPRP
shrunken log2 fold change: -0.0262

RRIRGRPPRLPRPRPRPMEIPRP
shrunken log2 fold change: -0.0753

RRIRGRPPRLPRPRPRPMFEPRP
shrunken log2 fold change: 0.688

RRIRGRPPRLPRPRPRPMGCPRP
shrunken log2 fold change: 0.0963

RRIRGRPPRLPRPRPRPMGDPRP
shrunken log2 fold change: 0.783

RRIRGRPPRLPRPRPRPMKVPRP
shrunken log2 fold change: -0.0224

RRIRGRPPRLPRPRPRPMLLPRP
shrunken log2 fold change: 0.548

RRIRGRPPRLPRPRPRPMLSPRP
shrunken log2 fold change: 0.393

RRIRGRPPRLPRPRPRPMMKPRP
shrunken log2 fold change: 0.591

RRIRGRPPRLPRPRPRPMMPPRP
shrunken log2 fold change: 0.119

RRIRGRPPRLPRPRPRPMNKPRP
shrunken log2 fold change: 1.69

RRIRGRPPRLPRPRPRPMNNPRP
shrunken log2 fold change: 0.18

RRIRGRPPRLPRPRPRPMPAPRP
shrunken log2 fold change: 1.29

RRIRGRPPRLPRPRPRPMPIPRP
shrunken log2 fold change: 0.0958

RRIRGRPPRLPRPRPRPMQMPRP
shrunken log2 fold change: 1.5

RRIRGRPPRLPRPRPRPMQNPRP
shrunken log2 fold change: 0.873

RRIRGRPPRLPRPRPRPMQVPRP
shrunken log2 fold change: 0.162

RRIRGRPPRLPRPRPRPMQWPRP
shrunken log2 fold change: -0.0537

RRIRGRPPRLPRPRPRPMRMPRP
shrunken log2 fold change: 1.4

RRIRGRPPRLPRPRPRPMSEPRP
shrunken log2 fold change: 0.286

RRIRGRPPRLPRPRPRPMTNPRP
shrunken log2 fold change: 0.835

RRIRGRPPRLPRPRPRPMVKPRP
shrunken log2 fold change: 0.00813

RRIRGRPPRLPRPRPRPMWHPRP
shrunken log2 fold change: 0.441

RRIRGRPPRLPRPRPRPMWVPRP
shrunken log2 fold change: 0.168

RRIRGRPPRLPRPRPRPMWWPRP
shrunken log2 fold change: 0.184

RRIRGRPPRLPRPRPRPMYEPRP
shrunken log2 fold change: 0.282

RRIRGRPPRLPRPRPRPNAEPRP
shrunken log2 fold change: 2.89

RRIRGRPPRLPRPRPRPNAKPRP
shrunken log2 fold change: 1.22

RRIRGRPPRLPRPRPRPNALPRP
shrunken log2 fold change: 0.474

RRIRGRPPRLPRPRPRPNATPRP
shrunken log2 fold change: 3.1

RRIRGRPPRLPRPRPRPNDSPRP
shrunken log2 fold change: -0.0552

RRIRGRPPRLPRPRPRPNEDPRP
shrunken log2 fold change: 0.468

RRIRGRPPRLPRPRPRPNEPPRP
shrunken log2 fold change: 0.154

RRIRGRPPRLPRPRPRPNEWPRP
shrunken log2 fold change: 1.8
